Experimental data published in the supplement of paper PMC9170038.

System: MS2 coat protein
Test: apparent KD of MS2 coat protein; designed switch direction (-1 OFF switch, 1 ON switch): -1; higher = weaker reporter binding
Summary of the method: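 Designed RNA switches sharing common flanks were transcribed on Illumina chips by stalled E. coli RNA polymerase. They were titrated with SNAP-549-labelled MS2 coat protein, from 0.7 or 1.5 nM doubling to 3 µM, in Tris-HCl pH 7.5 buffer with KCl, MgCl2, BSA, DTT, tRNA and Tween-20. Titrations ran without input, with 200 uM small-molecule ligand, or with an oligonucleotide input. The apparent KD of each design is the median over its clusters, after curve-fitting of normalised cluster fluorescence.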

[1] = input ligand: microRNA oligo, concentration not stated
[2] = Eterna round: R95, input ligand: FMN 200 uM
[3] = Eterna round: R95, input ligand: microRNA oligo, concentration not stated
[4] = Eterna round: R95, input ligand: none

Row | Sequence | apparent KD of MS2 coat protein (input ligand: FMN 200 uM) | apparent KD of MS2 coat protein (input ligand: none) | apparent KD of MS2 coat protein [1] | apparent KD of MS2 coat protein [2] | apparent KD of MS2 coat protein [3] | apparent KD of MS2 coat protein [4]
1 | UCCUCACAUGAGGAUCACCCAUGUUAGGAUAUCUUAGAGCGCGAAAGACAGUUCUUUAAGAGAAGGAACUGGGC [Exclusion 1 (MOD1 of Edarti)] (Eterna round: R97, puzzle: Exclusion 1) | 54 nM | 22.4 nM |  |  |  | 
2 | CAGCUGAAUGUGAGGAUAUGUCGAGCUUCGGCUCGAUAGAAGGCACAUGAGGAUCACCCAUGUCUCAACAGCUG [BmEx4/2-C1] (Eterna round: R97, puzzle: Brourd's mod of Exclusion 4) | 166 nM | 35.1 nM |  |  |  | 
3 | GUAAUUAAUGUAGGAUAUGCAAGGCGAACCUAAGCAGAAGGACAUGUGGAUCACCCAUGUAAACAUGAGGAUCACCCAUGUGCU [salish99_ExNG1_r4_006] (Eterna round: R96, puzzle: Exclusion NG 1) | 1320 nM | 4270 nM | 1340 nM |  |  | 
4 | CCGGUAGUAGUCAGGAUAUUCGAUUUUCACCAAGCGAAGAAGGGACAUGAGGAUCACCCAUGUUAGGUGAACGG [Eternabot (L2) Solution 68] (Eterna round: R97, puzzle: Brourd's mod of Exclusion 4) | 196 nM | 37.6 nM |  |  |  | 
5 | AUCAGCUCGUCAGGAUAUACAUGAGGAUCACCCAUGUGGUCAUUAGCAGCUUCGGCUGCAUUAAUGUAGAAGGGACGAGCUGAU [ENG2/8-B2] (Eterna round: R96, puzzle: Exclusion NG 2) | 544 nM | 502 nM | 522 nM |  |  | 
6 | AGAAAGUCAGGAUAUACAUGAGGAUCACCCAUGUAAAGAAAAGAAAGGGAAGGAAGAGGUAGAAGGGACAAGAA [JR_Exclu3_Sub031] (puzzle: Exclusion 3) |  |  |  | 26.5 nM | 22.7 nM | 23 nM
7 | CAAACCAGAGGAUAUGCGCAUAGAUCAGACUUUGUUUCUGAACAUGAGGAUCACCCAUGUAGAAGGCUGUAAAA [Ex2 #83] (Eterna round: R97, puzzle: Exclusion 2) | 28.1 nM | 29.7 nM |  |  |  | 
8 | CGAGUGUAAGGAUAUUCGGCACCAGAGAACGAUCUGGCGUAGAAGAAGGUACAUGAGGAUCACCCAUGUGGUUA [Atonte] (puzzle: Exclusion 4) |  |  |  |  | 114 nM | 
9 | AAAAGUUUUCAGGAUAUGUGCGAUUAAUAUCGUGCAGAAGGGAGGACAUGAGGAUCACCCAUGUUGAAGACAAC [Omei Ex6 A18] (Eterna round: R97, puzzle: Exclusion 6) | 66.1 nM | 80.2 nM |  |  |  | 
10 | UUACUACAUGUAGGAUAUGCGUGGCGAAGCUAUGCAGAAGGACAUGAGGAUCACCCAUGUUUUAGCGUCUGCGUACAGAUGCGU [JL ENG1 1.47] (Eterna round: R96, puzzle: Exclusion NG 1) |  |  | 14.8 nM |  |  | 
11 | UCAAUGCGAGGAUAUACGCACAAUUACAUGAGGAUCACCCAUGUCAUGAACUUUGGUAAGGUAGAAGGCGCUCCGU [Eternabot (L1) Solution 13] (Eterna round: R97, puzzle: Exclusion 5) | 32.4 nM | 41 nM |  |  |  | 
12 | UAAAUUGCAAGCAGAUCCUACAUGAGGAUCACCCAUGUGCUCUGAAAUAACGCAGAAUUACUGCGAGCUCGUCUUAU [Winner reversed engineered 26] (Eterna round: R97, puzzle: Sensor, turn-off variant 1) | 80.9 nM | 94.3 nM |  |  |  | 
13 | GCUGCACAUGUAGGAUAUCUGCACGUUUAGUGCAGAGAAGGACAUGAGGAUCACCCAUGUAGAUCAGCAGCAAUUAAUUUAAUU [ENG1/6-A3] (Eterna round: R96, puzzle: Exclusion NG 1) | 809 nM | 473 nM | 479 nM |  |  | 
14 | UCAUGUUUAGAGGAUAUGAUUACUCUAGAGUGAUCAGAAGGCUAGACAUGAGGAUCACCCAUGUCAGAACAUGA [Exclusion 6 - B - 16:b] (puzzle: Exclusion 6) |  |  |  | 95.4 nM | 47.6 nM | 46.5 nM
